Measured values published in publication doi:10.1101/2021.08.02.454712.

Target: recombinant Heme Detoxification Protein (PfHDP) (Plasmodium falciparum) (UniProt Q8IL04)
Assay: SPR

## recombinant C-terminal Plasmodium falciparum exportin 2 (Pfexp-2), amino acids 139-285 (domain or fragment)
  Kd: 1100 nM
